Reference: the supplement of paper PMC9876800

Test system: peptide library, one residue held at a place counted from the S/T acceptor
Assay: relative phosphorylation of the sub-library (ratio to the mean residue at this position); human; higher = residue favoured
Outline: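 Purified recombinant kinases (human or orthologue constructs) were incubated in 384-well plates with biotinylated degenerate peptide sub-libraries, each fixing one residue at one position around a central Ser/Thr. Peptides were at 50 μM, with 50 μM ATP spiked with γ-32P-ATP, for 90 min under kinase-specific conditions. Spots on streptavidin membranes were phosphorimaged and quantified by densitometry. Relative sub-library phosphorylation is a ratio to the mean residue at that position.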

CAMK1, construct: Full length, sequence (Q14012 whole entry, looked up): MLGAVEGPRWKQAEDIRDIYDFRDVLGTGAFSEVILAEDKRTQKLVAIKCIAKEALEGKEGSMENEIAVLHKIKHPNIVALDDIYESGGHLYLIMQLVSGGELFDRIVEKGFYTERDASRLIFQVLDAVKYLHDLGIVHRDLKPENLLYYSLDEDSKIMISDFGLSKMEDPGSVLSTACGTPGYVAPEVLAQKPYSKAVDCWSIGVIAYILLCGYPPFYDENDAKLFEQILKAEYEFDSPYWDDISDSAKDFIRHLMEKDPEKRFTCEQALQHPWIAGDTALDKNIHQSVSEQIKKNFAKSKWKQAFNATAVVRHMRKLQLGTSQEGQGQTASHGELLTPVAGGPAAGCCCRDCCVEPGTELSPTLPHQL
TTBK1, construct: Full length, sequence (Q5TCY1 whole entry, looked up): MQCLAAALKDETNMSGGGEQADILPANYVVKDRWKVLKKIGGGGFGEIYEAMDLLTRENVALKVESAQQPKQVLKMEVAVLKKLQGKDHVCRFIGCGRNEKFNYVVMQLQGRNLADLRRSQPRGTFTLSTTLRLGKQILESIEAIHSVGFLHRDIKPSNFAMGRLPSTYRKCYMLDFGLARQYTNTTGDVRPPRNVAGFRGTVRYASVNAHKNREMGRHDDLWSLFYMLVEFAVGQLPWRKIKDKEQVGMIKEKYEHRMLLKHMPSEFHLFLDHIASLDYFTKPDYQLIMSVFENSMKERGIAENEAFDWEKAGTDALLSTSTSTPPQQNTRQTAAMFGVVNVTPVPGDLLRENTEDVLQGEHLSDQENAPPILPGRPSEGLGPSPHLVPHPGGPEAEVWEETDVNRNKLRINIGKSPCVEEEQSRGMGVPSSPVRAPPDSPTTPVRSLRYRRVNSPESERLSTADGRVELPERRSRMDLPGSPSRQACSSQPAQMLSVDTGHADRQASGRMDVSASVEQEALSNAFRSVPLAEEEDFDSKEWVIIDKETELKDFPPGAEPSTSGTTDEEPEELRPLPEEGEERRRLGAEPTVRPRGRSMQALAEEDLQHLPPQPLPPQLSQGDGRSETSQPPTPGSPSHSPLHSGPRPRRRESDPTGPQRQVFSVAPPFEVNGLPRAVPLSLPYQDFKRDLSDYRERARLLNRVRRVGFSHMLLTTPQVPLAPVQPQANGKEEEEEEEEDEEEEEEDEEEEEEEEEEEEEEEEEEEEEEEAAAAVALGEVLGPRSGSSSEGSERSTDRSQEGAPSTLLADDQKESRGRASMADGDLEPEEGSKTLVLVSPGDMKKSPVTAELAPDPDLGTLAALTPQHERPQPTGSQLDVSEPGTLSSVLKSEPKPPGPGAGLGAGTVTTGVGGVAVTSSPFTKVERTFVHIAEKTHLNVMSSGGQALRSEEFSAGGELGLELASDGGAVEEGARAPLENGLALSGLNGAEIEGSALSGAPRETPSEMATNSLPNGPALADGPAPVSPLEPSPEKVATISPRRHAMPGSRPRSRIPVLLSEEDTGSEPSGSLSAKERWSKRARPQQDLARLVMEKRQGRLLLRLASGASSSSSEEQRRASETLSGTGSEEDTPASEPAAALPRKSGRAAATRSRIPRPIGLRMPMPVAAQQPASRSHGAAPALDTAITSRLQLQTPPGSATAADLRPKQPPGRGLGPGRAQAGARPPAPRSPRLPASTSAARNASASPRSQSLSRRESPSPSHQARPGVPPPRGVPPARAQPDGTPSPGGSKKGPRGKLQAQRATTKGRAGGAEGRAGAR

TTBK1, construct: Full length (from UniProt Q5TCY1)
relative phosphorylation
Settings	at +1	at +2	at +3	at +4	at -1	at -2	at -3	at -4	at -5
A fixed	0.474	1.63	0.964	0.817	0.663	0.79	0.94	0.821	0.856
D fixed	0.168	0.192	0.85	0.83	0.452	1.46	1.23	1.03	0.844
E fixed	0.626	0.168	1.35	0.735	0.391	1.14	0.832	0.75	0.582
F fixed	2.09	1.42	1.49	1.32	1.99	1.06	1.43	1.33	1.78
G fixed	0.183	0.441	0.998	0.874	0.355	0.662	0.918	0.815	0.877
H fixed	0.657	1.1	0.867	0.931	0.834	0.749	0.903	0.951	0.747
I fixed	2.66	1.23	1.54	0.714	1.67	1.02	1.56	1.24	1.19
K fixed	0.517	1.04	0.514	1.1	1.28	0.64	0.66	0.957	1.08
L fixed	1.76	0.965	1.15	0.965	1.7	2.09	1.24	1.07	0.95
M fixed	1.5	1.31	1.29	0.855	1.08	1.23	1.04	0.933	0.79
N fixed	0.221	0.394	0.472	0.8	0.562	0.773	0.666	0.683	0.626
P fixed	0.0712	0.231	0.421	1.23	0.589	1.04	0.649	0.687	0.7
Q fixed	0.749	0.493	0.595	0.928	0.675	0.849	0.801	0.674	0.773
R fixed	0.789	1.42	0.641	1.41	1.23	0.934	0.888	1.06	1.22
V fixed	1.84	1.18	1.35	0.728	1.4	1.04	1.02	1.22	1.17
W fixed	1.38	2.24	1.19	1.75	1.11	0.808	1.16	1.54	1.35
Y fixed	1.31	1.57	1.32	1.01	1.03	0.721	1.08	1.23	1.47
pThr fixed	0.403	0.521	0.836	1.01	0.51	2.02	1.57	1.28	1.03
pTyr fixed	1.48	12.4	1.22	0.697	0.613	2.31	2.58	1.76	1.35

CAMK1, construct: Full length (from UniProt Q14012)
relative phosphorylation
Settings	at +1	at +2	at +3	at +4	at -1	at -2	at -3	at -4	at -5
A fixed	0.669	0.817	0.709	0.598	0.804	1.02	0.635	0.826	0.346
D fixed	0.448	0.609	1.01	0.758	0.925	0.25	0.157	0.285	0.205
E fixed	0.497	0.508	0.699	0.628	0.483	0.322	0.178	0.542	0.189
F fixed	2.41	1.16	1.44	1.44	0.637	0.398	0.201	0.833	1.56
G fixed	0.623	0.554	0.911	0.897	0.773	0.607	0.218	0.614	0.402
H fixed	0.834	1.26	1.23	0.911	1.17	0.757	0.603	0.942	0.527
I fixed	0.715	1.06	0.751	1.42	0.49	0.413	0.165	1.03	1.49
K fixed	1.35	1.13	0.881	0.821	1.87	2.03	2.38	2.62	0.663
L fixed	0.767	1.16	0.962	1.82	0.965	0.54	0.188	1.12	2.97
M fixed	1.21	0.986	0.938	1.37	1.01	1.33	0.252	1.13	1.39
N fixed	1.13	1.18	1.64	1.07	2.03	0.856	0.369	0.802	0.394
P fixed	0.263	0.598	0.75	1.21	1.31	0.245	0.274	0.575	1.54
Q fixed	1.44	1	1.14	1.01	1.23	2.24	0.784	1.11	0.976
R fixed	1.96	1.42	0.961	0.679	1.59	4.18	9.87	2.11	1.8
V fixed	0.758	0.857	0.663	0.732	0.504	0.469	0.177	1.01	0.676
W fixed	0.932	1.36	1.38	0.911	0.45	0.842	0.325	0.633	0.924
Y fixed	0.99	1.34	0.935	0.716	0.753	0.488	0.227	0.827	0.946
pThr fixed	0.649	0.596	0.601	0.682	0.288	0.264	0.201	0.389	0.248
pTyr fixed	0.654	1.94	0.848	0.605	0.604	0.361	0.473	0.445	0.461
